Assay in all cases: fluorescence polarisation; 25 °C; unlabeled Rb^P titrated against 1.5 nM TMR-E2F1^TD or 7.5 nM TMR-E7^LxCxE; 25 mM Tris pH 8.0, 200 mM NaCl, 1 mM DTT, 0.1% Tween-20; 2 min incubation; quadratic fit; apparent Kd for the variants, Kd for WT
Common to all, as to conditions: both partners purified
A general note: Fluorescence polarisation rises when a labelled molecule tumbles more slowly, as on binding a larger partner.

One assay addresses T1, Rb^P K462T (human, UniProt P06400 380-788, K462T).
T1 construct: also called variant 9
T1 sequence (looked up): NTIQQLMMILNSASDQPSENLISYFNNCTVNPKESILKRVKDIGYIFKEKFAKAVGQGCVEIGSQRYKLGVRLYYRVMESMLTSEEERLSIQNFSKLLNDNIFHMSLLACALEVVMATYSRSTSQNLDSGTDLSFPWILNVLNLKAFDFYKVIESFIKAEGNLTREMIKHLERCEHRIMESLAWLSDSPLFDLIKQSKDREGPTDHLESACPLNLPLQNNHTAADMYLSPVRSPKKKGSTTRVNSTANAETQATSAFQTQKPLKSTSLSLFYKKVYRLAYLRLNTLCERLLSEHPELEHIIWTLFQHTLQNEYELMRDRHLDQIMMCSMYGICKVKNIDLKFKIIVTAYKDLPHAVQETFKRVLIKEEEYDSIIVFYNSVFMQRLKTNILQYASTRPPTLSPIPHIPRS

The target in another assay is T2, Rb^P R656Q (human, UniProt P06400 380-788, R656Q).
T2 construct: also called variant 48
T2 sequence (looked up): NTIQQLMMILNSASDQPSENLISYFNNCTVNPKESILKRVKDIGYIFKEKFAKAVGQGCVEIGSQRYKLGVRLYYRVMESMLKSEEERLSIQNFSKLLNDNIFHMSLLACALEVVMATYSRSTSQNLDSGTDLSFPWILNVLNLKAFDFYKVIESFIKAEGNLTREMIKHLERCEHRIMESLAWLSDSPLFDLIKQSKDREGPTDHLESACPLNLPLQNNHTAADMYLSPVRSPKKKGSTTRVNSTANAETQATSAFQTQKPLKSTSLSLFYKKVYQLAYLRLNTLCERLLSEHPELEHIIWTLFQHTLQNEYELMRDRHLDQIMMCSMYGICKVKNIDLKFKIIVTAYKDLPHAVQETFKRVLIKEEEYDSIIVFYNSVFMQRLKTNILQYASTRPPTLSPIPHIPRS

The next assay addresses T3, Rb^P Q444R (human, UniProt P06400 380-788, Q444R).
T3 construct: also called variant 4
T3 sequence (looked up): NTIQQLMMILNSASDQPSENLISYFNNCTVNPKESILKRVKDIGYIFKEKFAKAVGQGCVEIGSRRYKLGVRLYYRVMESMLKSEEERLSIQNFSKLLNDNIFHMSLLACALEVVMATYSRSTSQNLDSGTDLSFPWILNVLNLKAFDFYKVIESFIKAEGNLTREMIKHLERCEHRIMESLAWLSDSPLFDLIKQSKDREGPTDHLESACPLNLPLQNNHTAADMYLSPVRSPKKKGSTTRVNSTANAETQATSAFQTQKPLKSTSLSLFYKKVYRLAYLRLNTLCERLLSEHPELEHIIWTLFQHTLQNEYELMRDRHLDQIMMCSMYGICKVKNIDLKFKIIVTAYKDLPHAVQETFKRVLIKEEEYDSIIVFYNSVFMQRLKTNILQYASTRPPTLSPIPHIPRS

The target of another assay is T4, Rb^P T738I (human, UniProt P06400 380-788, T738I).
T4 construct: also called variant 67
T4 sequence (looked up): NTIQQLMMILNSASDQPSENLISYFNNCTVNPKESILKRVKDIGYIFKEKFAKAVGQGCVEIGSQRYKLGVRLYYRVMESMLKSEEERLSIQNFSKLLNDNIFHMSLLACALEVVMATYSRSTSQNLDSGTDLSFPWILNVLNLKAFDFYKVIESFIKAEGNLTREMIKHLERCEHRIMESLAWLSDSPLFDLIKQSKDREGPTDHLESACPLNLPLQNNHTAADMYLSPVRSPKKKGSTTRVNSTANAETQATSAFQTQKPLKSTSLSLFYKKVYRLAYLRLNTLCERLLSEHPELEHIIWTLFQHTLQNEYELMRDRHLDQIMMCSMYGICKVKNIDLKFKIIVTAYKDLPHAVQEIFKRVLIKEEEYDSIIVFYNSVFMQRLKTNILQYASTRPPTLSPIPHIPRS

A further assay addresses T5, Rb^P V754G (human, UniProt P06400 380-788, V754G).
T5 construct: also called variant 73
T5 sequence (looked up): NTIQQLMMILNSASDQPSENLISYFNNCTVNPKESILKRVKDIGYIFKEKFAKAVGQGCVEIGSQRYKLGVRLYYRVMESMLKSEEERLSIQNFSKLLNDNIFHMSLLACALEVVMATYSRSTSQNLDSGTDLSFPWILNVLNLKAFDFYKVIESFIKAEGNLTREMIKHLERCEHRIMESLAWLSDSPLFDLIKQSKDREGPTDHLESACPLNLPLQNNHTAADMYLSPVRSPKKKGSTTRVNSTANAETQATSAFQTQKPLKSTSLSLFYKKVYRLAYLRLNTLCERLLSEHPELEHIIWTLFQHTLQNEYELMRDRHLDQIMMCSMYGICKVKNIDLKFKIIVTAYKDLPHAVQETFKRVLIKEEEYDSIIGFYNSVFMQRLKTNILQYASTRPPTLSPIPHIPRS

No end group written: not given here. TMR = tetramethyl rhodamine dye

B1: TMR-E2F1^TD, peptide of the E2F1 transactivation domain (peptide)
peptide: {TMR}-GEGIRDLFDCDFGDLTPLD
notes: also called E2F^TD; source: synthetic peptide, bought: GenScript
For the molecule B1, the Kd in the assay with Rb^P K462T was 0.03 µM; with Rb^P R656Q it was 0.183 µM; in the assay with Rb^P Q444R, 0.015 µM; with Rb^P T738I, 0.06 µM; with Rb^P V754G it was 0.02 µM.

B2: TMR-E7^LxCxE, LxCxE peptide of the E7 oncoprotein from HPV (peptide)
peptide: DLYCYEQLN
modifications: also: TMR label, position not given here
notes: source: synthetic peptide, bought: GenScript
Take B2: the Kd with Rb^P K462T is 0.008 µM; in the assay with Rb^P R656Q, 0.006 µM; in the assay with Rb^P Q444R, 0.007 µM; in the assay with Rb^P T738I, 0.018 µM; with Rb^P V754G, 0.007 µM.
